From PMC6504948 come the findings set out here.

This experiment has as its target CD19 on CD19-positive tumor cells (Nalm6, Raji) (human (endogenous in Nalm6 and Raji)) (UniProt P15391).
Sequence of UniProt P15391 (P15391 20-556): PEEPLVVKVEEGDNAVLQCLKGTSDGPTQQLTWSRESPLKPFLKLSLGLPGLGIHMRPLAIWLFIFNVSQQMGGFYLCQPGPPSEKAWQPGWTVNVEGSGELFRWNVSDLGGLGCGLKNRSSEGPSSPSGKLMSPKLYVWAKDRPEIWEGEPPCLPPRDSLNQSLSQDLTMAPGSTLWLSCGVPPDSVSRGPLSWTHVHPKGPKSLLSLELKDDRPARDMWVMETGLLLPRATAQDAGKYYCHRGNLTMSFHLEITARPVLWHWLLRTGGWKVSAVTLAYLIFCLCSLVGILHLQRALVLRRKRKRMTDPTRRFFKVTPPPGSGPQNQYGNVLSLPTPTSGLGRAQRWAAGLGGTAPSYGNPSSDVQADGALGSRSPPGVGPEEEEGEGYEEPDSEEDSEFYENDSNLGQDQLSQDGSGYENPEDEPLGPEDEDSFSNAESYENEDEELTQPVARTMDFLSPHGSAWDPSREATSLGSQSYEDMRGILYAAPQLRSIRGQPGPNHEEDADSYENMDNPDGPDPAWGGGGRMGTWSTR

Take “γ-TRuC (CD19-specific T cell receptor fusion construct: FMC63 scFv fused to full-length human CD3γ) (from UniProt P09693 23-182)”: the conversion of transduced primary T cells into a CD69+/CD25+ phenotype after overnight co-culture with Nalm6 cells turned out to be 50%.
